Like-named read-outs stand apart in the source and are kept apart here.
Tests used:
wild type TSHR (human) [1] = target: wild type TSHR (human) (UniProt P16473); test: cell-based or functional assay
[2] = target: TSHR with Tyr206 mutated to Ala (human) (UniProt P16473); test: cell-based or functional assay
TSHR260-AP (human) [3] = test: TSHR260-AP bridge ELISA (full length TSHR on wells, TSHR260-AP in solution); IgG 1 µg/mL diluted in assay buffer
wild type TSHR (human) [4] = target: wild type TSHR (human) (UniProt P16473); test: cell-based or functional assay; remark: listed apart in the source
[5] = target: TSHR with Lys209 mutated to Ala (human) (UniProt P16473); test: cell-based or functional assay
[6] = target: TSHR260-alkaline phosphatase (TSHR260-AP) (human) (UniProt P05187); test: TSHR260-AP bridge ELISA, full length TSHR on wells; 100 µg/mL, diluted in assay buffer
[7] = target: TSHR with Asp43 mutated to Ala, expressed in CHO cells (human) (UniProt P16473); test: cell-based or functional assay
[8] = target: TSHR with Thr104 mutated to Ala (expressed in CHO cells) (human) (UniProt P16473); test: cell-based or functional assay
[9] = target: TSHR with Lys58 mutated to Ala expressed in CHO cells (human) (UniProt P16473); test: cell-based or functional assay
[10] = target: human TSHR (thyroid stimulating hormone receptor), full length, expressed in transfected CHO cells (human) (UniProt P16473); test: cell-based or functional assay
TSHR260-AP (human) [11] = test: TSHR260-AP bridge ELISA (full length TSHR on wells, TSHR260-AP in solution); IgG 0.005 µg/mL diluted in HBD serum
[12] = target: TSHR260-alkaline phosphatase (TSHR260-AP) (human) (UniProt P05187); test: TSHR260-AP bridge ELISA, full length TSHR on wells; 0.1 µg/mL, diluted in HBD
[13] = target: TSH receptor (TSHR), full length human, coated on tubes (human) (UniProt P16473); test: inhibition of 125I-TSH binding to TSHR coated tubes; 0.1 µg/mL, diluted in assay buffer
[14] = target: wild type TSHR expressed in CHO cells (human) (UniProt P16473); test: cell-based or functional assay
[15] = target: TSHR with Arg274 mutated to Ala, expressed in CHO cells (human) (UniProt P16473); test: cell-based or functional assay

5B3 IgG (antibody)
% inhibition of TSH stimulation, 5B3 100 µg/mL, wild type TSHR (wild type TSHR (human) [1]): 0%
Cyclic AMP produced (pmol/mL), 5B3 10 µg/mL + TSH 3 ng/mL, wild type TSHR (wild type TSHR (human) [1]): 94.5 pmol/mL
Cyclic AMP produced (pmol/mL), 5B3 100 µg/mL + TSH 3 ng/mL, wild type TSHR (wild type TSHR (human) [1]): 101 pmol/mL
% inhibition of TSH stimulation, 5B3 10 µg/mL, mutated TSHR [2]: 10%
% inhibition of TSH stimulation, 5B3 100 µg/mL, mutated TSHR [2]: 9%
Cyclic AMP produced (pmol/mL), 5B3 10 µg/mL + TSH 3 ng/mL, mutated TSHR [2]: 74.6 pmol/mL
Cyclic AMP produced (pmol/mL), 5B3 100 µg/mL + TSH 3 ng/mL, mutated TSHR [2]: 75.2 pmol/mL
Mutated/wild type (%) of cyclic AMP produced; 5B3 10 µg/mL + TSH 3 ng/mL [2]: 79%
Mutated/wild type (%) of cyclic AMP produced; 5B3 100 µg/mL + TSH 3 ng/mL [2]: 74%
Mean absorbance at 405 nm (absorbance at 405 nm) (TSHR260-AP (human) [3]): -0.004
% inhibition of TSH stimulation, 5B3 10 µg/mL, wild type TSHR (wild type TSHR (human) [4]): 3%
Cyclic AMP produced (pmol/mL), 5B3 10 µg/mL + TSH 3 ng/mL, wild type TSHR (wild type TSHR (human) [4]): 76.6 pmol/mL
Cyclic AMP produced (pmol/mL), 5B3 100 µg/mL + TSH 3 ng/mL, wild type TSHR (wild type TSHR (human) [4]): 87.7 pmol/mL
% inhibition of TSH stimulation, 5B3 10 µg/mL, mutated TSHR [5]: 2%
% inhibition of TSH stimulation, 5B3 100 µg/mL, mutated TSHR [5]: 3%
Cyclic AMP produced (pmol/mL), 5B3 10 µg/mL + TSH 3 ng/mL, mutated TSHR [5]: 56.5 pmol/mL
Cyclic AMP produced (pmol/mL), 5B3 100 µg/mL + TSH 3 ng/mL, mutated TSHR [5]: 55.9 pmol/mL
Mutated/wild type (%) of cyclic AMP produced; 5B3 10 µg/mL + TSH 3 ng/mL [5]: 74%
Mutated/wild type (%) of cyclic AMP produced; 5B3 100 µg/mL + TSH 3 ng/mL [5]: 64%
Mean absorbance at 405 nm (absorbance at 405 nm) [6]: -0.011
% inhibition of TSH stimulation, 5B3 10 µg/mL, mutated TSHR [7]: 0%
% inhibition of TSH stimulation, 5B3 100 µg/mL, mutated TSHR [7]: 4%
Cyclic AMP produced (pmol/mL), 5B3 10 µg/mL + TSH 3 ng/mL, mutated TSHR [7]: 73.7 pmol/mL
Cyclic AMP produced (pmol/mL), 5B3 100 µg/mL + TSH 3 ng/mL, mutated TSHR [7]: 58 pmol/mL
Mutated/wild type (%), 5B3 10 µg/mL + TSH 3 ng/mL [7]: 69%
Mutated/wild type (%), 5B3 100 µg/mL + TSH 3 ng/mL [7]: 56%
% inhibition of TSH stimulation; 5B3 10 µg/mL [8]: 7%
% inhibition of TSH stimulation; 5B3 100 µg/mL [8]: 6%
Cyclic AMP produced; 5B3 10 µg/mL + TSH 3 ng/mL [8]: 59.1 pmol/mL
Cyclic AMP produced; 5B3 100 µg/mL + TSH 3 ng/mL [8]: 60 pmol/mL
Mutated/wild type (%) of cyclic AMP produced; 5B3 10 µg/mL + TSH 3 ng/mL [8]: 71%
Mutated/wild type (%) of cyclic AMP produced; 5B3 100 µg/mL + TSH 3 ng/mL [8]: 68%
% inhibition of TSH stimulation; 5B3 10 µg/mL; Experiment 1 [9]: 0%
% inhibition of TSH stimulation; 5B3 10 µg/mL; Experiment 2 [9]: 4%
% inhibition of TSH stimulation; 5B3 100 µg/mL; Experiment 1 [9]: 0%
% inhibition of TSH stimulation; 5B3 100 µg/mL; Experiment 2 [9]: 1%
Cyclic AMP produced; 5B3 10 µg/mL + TSH 3 ng/mL; Experiment 1 [9]: 81.6 pmol/mL
Cyclic AMP produced; 5B3 10 µg/mL + TSH 3 ng/mL; Experiment 2 [9]: 92.9 pmol/mL
Cyclic AMP produced; 5B3 100 µg/mL + TSH 3 ng/mL; Experiment 1 [9]: 81.6 pmol/mL
Cyclic AMP produced; 5B3 100 µg/mL + TSH 3 ng/mL; Experiment 2 [9]: 95.8 pmol/mL
Mutated/wild type (%) of cyclic AMP produced; 5B3 10 µg/mL + TSH 3 ng/mL; Experiment 1 [9]: 99%
Mutated/wild type (%) of cyclic AMP produced; 5B3 10 µg/mL + TSH 3 ng/mL; Experiment 2 [9]: 88%
Mutated/wild type (%) of cyclic AMP produced; 5B3 100 µg/mL + TSH 3 ng/mL; Experiment 1 [9]: 101%
Mutated/wild type (%) of cyclic AMP produced; 5B3 100 µg/mL + TSH 3 ng/mL; Experiment 2 [9]: 106%
% Inhibition of K1-18 IgG stimulation; 10 ng/mL K1-18 IgG + 100 µg/mL 5B3 IgG [10]: 0%
% Inhibition of K1-18 stimulation; 10 ng/mL K1-18 + 100 µg/mL 5B3 IgG [10]: 0%
% Inhibition of K1-18 stimulation; 10 ng/mL KM 8 [K1-18] + 10 µg/mL 5B3 IgG [10]: 3.5%
Mean absorbance at 405 nm (absorbance at 405 nm) (TSHR260-AP (human) [11]): -0.002
Mean absorbance at 405 nm (absorbance at 405 nm) [12]: -0.002
Inhibition of binding (%) [13]: -5%
% inhibition of TSH stimulation; 5B3 10 µg/mL [14]: 0%
% inhibition of TSH stimulation; 5B3 100 µg/mL [14]: 0%
Cyclic AMP produced; 5B3 10 µg/mL + TSH 3 ng/mL [14]: 116 pmol/mL
Cyclic AMP produced; 5B3 10 µg/mL + TSH 3 ng/mL (second row printed with 10 µg/mL) [14]: 121 pmol/mL
% inhibition of TSH stimulation; 5B3 10 µg/mL [15]: 0%
% inhibition of TSH stimulation; 5B3 100 µg/mL [15]: 4%
Cyclic AMP produced; 5B3 10 µg/mL + TSH 3 ng/mL [15]: 106 pmol/mL
Cyclic AMP produced; 5B3 10 µg/mL + TSH 3 ng/mL (second row printed with 10 µg/mL) [15]: 95.3 pmol/mL
Mutated/wild type (%) of cyclic AMP produced; 5B3 10 µg/mL + TSH 3 ng/mL [15]: 92%
Mutated/wild type (%) of cyclic AMP produced; 5B3 10 µg/mL + TSH 3 ng/mL (second row printed with 10 µg/mL) [15]: 79%

Reference: patent US20110300138A1 (published 2011)
